# Test results from IntAct's records for PubMed 29892012.
# B1: Pleckstrin homology domain-containing family G member 2 (Homo sapiens), Q9H7P9 (parent)
# chain: MPEGAQGLSLSKPSPSLGCGRRGEVCDCGTVCETRTAPAAPTMASPRGSGSSTSLSTVGSEGDPAPGPTPACSASRPEPLPGPPIRLHLSPVGIPGSARPSRLERVAREIVETERAYVRDLRSIVEDYLGPLLDGGVLGLSVEQVGTLFANIEDIYEFSSELLEDLENSSSAGGIAECFVQRSEDFDIYTLYCMNYPSSLALLRELSLSPPAALWLQERQAQLRHSLPLQSFLLKPVQRILKYHLLLQELGKHWAEGPGTGGREMVEEAIVSMTAVAWYINDMKRKQEHAARLQEVQRRLGGWTGPELSAFGELVLEGAFRGGGGGGPRLRGGERLLFLFSRMLLVAKRRGLEYTYKGHIFCCNLSVSESPRDPLGFKVSDLTIPKHRHLLQAKNQEEKRLWIHCLQRLFFENHPASIPAKAKQVLLENSLHCAPKSKPVLEPLTPPLGSPRPRDARSFTPGRRNTAPSPGPSVIRRGRRQSEPVKDPYVMFPQNAKPGFKHAGSEGELYPPESQPPVSGSAPPEDLEDAGPPTLDPSGTSITEEILELLNQRGLRDPGPSTHDIPKFPGDSQVPGDSETLTFQALPSRDSSEEEEEEEEGLEMDERGPSPLHVLEGLESSIAAEMPSIPCLTKIPDVPNLPEIPSRCEIPEGSRLPSLSDISDVFEMPCLPAIPSVPNTPSLSSTPTLSCDSWLQGPLQEPAEAPATRRELFSGSNPGKLGEPPSGGKAGPEEDEEGVSFTDFQPQDVTQHQGFPDELAFRSCSEIRSAWQALEQGQLARPGFPEPLLILEDSDLGGDSGSGKAGAPSSERTASRVRELARLYSERIQQMQRAETRASANAPRRRPRVLAQPQPSPCLPQEQAEPGLLPAFGHVLVCELAFPLTCAQESVPLGPAVWVQAAIPLSKQGGSPDGQGLHVSNLPKQDLPGIHVSAATLLPEQGGSRHVQAPAATPLPKQEGPLHLQVPALTTFSDQGHPEIQVPATTPLPEHRSHMVIPAPSTAFCPEQGHCADIHVPTTPALPKEICSDFTVSVTTPVPKQEGHLDSESPTNIPLTKQGGSRDVQGPDPVCSQPIQPLSWHGSSLDPQGPGDTLPPLPCHLPDLQIPGTSPLPAHGSHLDHRIPANAPLSLSQELPDTQVPATTPLPLPQVLTDIWVQALPTSPKQGSLPDIQGPAAAPPLPEPSLTDTQVQKLTPSLEQKSLIDAHVPAATPLPERGGSLDIQGLSPTPVQTTMVLSKPGGSLASHVARLESSDLTPPHSPPPSSRQLLGPNAAALSRYLAASYISQSLARRQGPGGGAPAASRGSWSSAPTSRASSPPPQPQPPPPPARRLSYATTVNIHVGGGGRLRPAKAQVRLNHPALLASTQESMGLHRAQGAPDAPFHM
# B2: Coiled-coil domain-containing protein 120 (Homo sapiens), Q96HB5-4 (parent)
# chain: MRREPRYQGQVGPDIHTDSERTLSSHQPRPLDSTKMEVKGQLISSPTFNAPAALFGEAAPQVKSERLRGLLDRQRTLQEALSLKLQELRKVCLQEAELTGQLPPECPLEPGERPQLVRRRPPTARAYPPPHPNQAHHSLCPAEELALEALEREVSVQQQIAAAARRLALAPDLSTEQRRRRRQVQADALRRLHELEEQLRDVRARLGLPVLPLPQPLPLSTGSVITTQGVCLGMRLAQLSQEDVVLHSESSSLSESGASHDNEEPHGCFSLAERPSPPKAWDQLRAVSGGSPERRTPWKPPPSDLYGDLKSRRNSVASPTSPTRSLPRSASSFEGRSVPATPVLTRGAGPQLCKPEGLHSRQWSGSQDSQMGFPRADPASDRASLFVARTRRSNSSEALLVDRAAGGGAGSPPAPLAPSASGPPVCKSSEVLYERPQPTPAFSSRTAGPPDPPRAARPSSAAPASRGAPRLPPVCGDFLLDYSLDRGLPRSGGGTGWGELPPAAEVPGPLSRRDGLLTMLPGPPPVYAADSNSPLLRTKDPHTRATRTKPCGLPPEAAEGPEVHPNPLLWMPPPTRIPSAGERSGHKNLALEGLRDWYIRNSGLAAGPQRRPVLPSVGPPHPPFLHARCYEVGQALYGAPSQAPLPHSRSFTAPPVSGRYYADFLYPPELSARLSDLTLEGEQSSSSDTQTPGTLV
# partner: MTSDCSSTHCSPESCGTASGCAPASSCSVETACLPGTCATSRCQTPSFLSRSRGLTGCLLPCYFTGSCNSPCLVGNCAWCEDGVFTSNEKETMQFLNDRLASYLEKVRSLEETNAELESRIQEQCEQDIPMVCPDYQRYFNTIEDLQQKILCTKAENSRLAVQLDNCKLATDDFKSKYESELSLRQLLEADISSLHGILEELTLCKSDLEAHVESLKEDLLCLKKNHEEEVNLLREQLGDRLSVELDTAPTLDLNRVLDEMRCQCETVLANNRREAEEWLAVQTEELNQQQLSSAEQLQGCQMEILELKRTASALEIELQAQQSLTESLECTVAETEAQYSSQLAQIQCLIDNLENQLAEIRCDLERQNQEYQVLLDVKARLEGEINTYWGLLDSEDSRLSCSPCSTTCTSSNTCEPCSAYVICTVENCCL
# B3: Protein VAC14 homolog (Homo sapiens), Q08AM6 (parent)
# chain: MNPEKDFAPLTPNIVRALNDKLYEKRKVAALEIEKLVREFVAQNNTVQIKHVIQTLSQEFALSQHPHSRKGGLIGLAACSIALGKDSGLYLKELIEPVLTCFNDADSRLRYYACEALYNIVKVARGAVLPHFNVLFDGLSKLAADPDPNVKSGSELLDRLLKDIVTESNKFDLVSFIPLLRERIYSNNQYARQFIISWILVLESVPDINLLDYLPEILDGLFQILGDNGKEIRKMCEVVLGEFLKEIKKNPSSVKFAEMANILVIHCQTTDDLIQLTAMCWMREFIQLAGRVMLPYSSGILTAVLPCLAYDDRKKSIKEVANVCNQSLMKLVTPEDDELDELRPGQRQAEPTPDDALPKQEGTASGGPDGSCDSSFSSGISVFTAASTERAPVTLHLDGIVQVLNCHLSDTAIGMMTRIAVLKWLYHLYIKTPRKMFRHTDSLFPILLQTLSDESDEVILKDLEVLAEIASSPAGQTDDPGPLDGPDLQASHSELQVPTPGRAGLLNTSGTKGLECSPSTPTMNSYFYKFMINLLKRFSSERKLLEVRGPFIIRQLCLLLNAENIFHSMADILLREEDLKFASTMVHALNTILLTSTELFQLRNQLKDLKTLESQNLFCCLYRSWCHNPVTTVSLCFLTQNYRHAYDLIQKFGDLEVTVDFLAEVDKLVQLIECPIFTYLRLQLLDVKNNPYLIKALYGLLMLLPQSSAFQLLSHRLQCVPNPELLQTEDSLKAAPKSQKADSPSIDYAELLQHFEKVQNKHLEVRHQRSGRGDHLDRRVVL
# partner: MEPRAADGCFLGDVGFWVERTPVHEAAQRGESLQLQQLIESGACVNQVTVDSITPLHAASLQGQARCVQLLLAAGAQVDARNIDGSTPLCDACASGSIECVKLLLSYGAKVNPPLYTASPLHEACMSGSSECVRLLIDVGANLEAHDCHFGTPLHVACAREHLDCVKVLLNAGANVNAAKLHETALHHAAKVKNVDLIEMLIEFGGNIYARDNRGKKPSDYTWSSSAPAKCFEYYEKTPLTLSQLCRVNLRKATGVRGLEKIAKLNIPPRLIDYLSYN
# B4: Vacuolar protein-sorting-associated protein 25 (Homo sapiens), Q9BRG1 (parent)
# chain: MAMSFEWPWQYRFPPFFTLQPNVDTRQKQLAAWCSLVLSFCRLHKQSSMTVMEAQESPLFNNVKLQRKLPVESIQIVLEELRKKGNLEWLDKSKSSFLIMWRRPEEWGKLIYQWVSRSGQNNSVFTLYELTNGEDTEDEEFHGLDEATLLRALQALQQEHKAEIITVSDGRGVKFF
# partner: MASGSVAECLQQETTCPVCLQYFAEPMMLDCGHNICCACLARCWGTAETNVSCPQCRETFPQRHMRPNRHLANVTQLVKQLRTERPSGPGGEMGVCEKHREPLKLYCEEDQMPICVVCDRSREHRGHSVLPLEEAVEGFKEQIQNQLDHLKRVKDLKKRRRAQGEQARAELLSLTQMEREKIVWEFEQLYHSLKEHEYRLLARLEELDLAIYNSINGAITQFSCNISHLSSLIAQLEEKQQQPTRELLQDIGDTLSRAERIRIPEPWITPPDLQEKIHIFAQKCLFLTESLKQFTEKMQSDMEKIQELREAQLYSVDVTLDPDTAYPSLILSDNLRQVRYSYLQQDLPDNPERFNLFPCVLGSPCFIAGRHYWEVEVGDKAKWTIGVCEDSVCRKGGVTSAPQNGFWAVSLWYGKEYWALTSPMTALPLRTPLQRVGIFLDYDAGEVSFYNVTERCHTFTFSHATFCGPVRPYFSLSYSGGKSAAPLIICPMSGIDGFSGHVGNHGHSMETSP
# B5: Genetic suppressor element 1 (Homo sapiens), Q14687 (parent)
# chain: MKGMSHEPKSPSLGMLSTATRTTATVNPLTPSPLNGALVPSGSPATSSALSAQAAPSSSFAAALRKLAKQAEEPRGSSLSSESSPVSSPATNHSSPASTPKRVPMGPIIVPPGGHSVPSTPPVVTIAPTKTVNGVWRSESRQDAGSRSSSGGRERLIVEPPLPQEKAGGPAIPSHLLSTPYPFGLSPSSVVQDSRFPPLNLQRPVHHVVPPSTVTEDYLRSFRPYHTTDDLRMSSLPPLGLDPATAAAYYHPSYLAPHPFPHPAFRMDDSYCLSALRSPFYPIPTPGSLPPLHPSAMHLHLSGVRYPPELSHSSLAALHSERMSGLSAERLQMDEELRREREREREREREREADREREKEREREREKEREQEKEREREKERERELERQREQRAREKELLAAKALEPSFLPVAELHGLRGHATEERGKPSEQLTPTRAEKLKDAGLQAPKPVQHPLHPVPTPHHTVPSLISNHGIFSLPSSSAATALLIQRTNEEEKWLARQRRLRQEKEDRQSQVSEFRQQVLEQHLDMGRPPVPAEAEHRPESTTRPGPNRHEPGGRDPPQHFGGPPPLISPKPQLHAAPTALWNPVSLMDNTLETRRAESHSLHSHPAAFEPSRQAAVPLVKVERVFCPEKAEEGPRKREPAPLDKYQPPPPPPREGGSLEHQPFLPGPGPFLAELEKSTQTILGQQRASLPQAATFGELSGPLKPGSPYRPPVPRAPDPAYIYDEFLQQRRRLVSKLDLEERRRREAQEKGYYYDLDDSYDESDEEEVRAHLRCVAEQPPLKLDTSSEKLEFLQLFGLTTQQQKEELVAQKRRKRRRMLRERSPSPPTIQSKRQTPSPRLALSTRYSPDEMNNSPNFEEKKKFLTIFNLTHISAEKRKDKERLVEMLRAMKQKALSAAVADSLTNSPRDSPAVSLSEPATQQASLDVEKPVGVAASLSDIPKAAEPGKLEQVRPQELSRVQELAPASGEKARLSEAPGGKKSLSMLHYIRGAAPKDIPVPLSHSTNGKSKPWEPFVAEEFAHQFHESVLQSTQKALQKHKGSVAVLSAEQNHKVDTSVHYNIPELQSSSRAPPPQHNGQQEPPTARKGPPTQELDRDSEEEEEEDDEDGEDEEEVPKRKWQGIEAVFEAYQEHIEEQNLERQVLQTQCRRLEARHYSLSLTAEQLSHSVAELRSQKQKMVSERERLQAELDHLRKCLALPAMHWPRGYLKGYPR
# partner: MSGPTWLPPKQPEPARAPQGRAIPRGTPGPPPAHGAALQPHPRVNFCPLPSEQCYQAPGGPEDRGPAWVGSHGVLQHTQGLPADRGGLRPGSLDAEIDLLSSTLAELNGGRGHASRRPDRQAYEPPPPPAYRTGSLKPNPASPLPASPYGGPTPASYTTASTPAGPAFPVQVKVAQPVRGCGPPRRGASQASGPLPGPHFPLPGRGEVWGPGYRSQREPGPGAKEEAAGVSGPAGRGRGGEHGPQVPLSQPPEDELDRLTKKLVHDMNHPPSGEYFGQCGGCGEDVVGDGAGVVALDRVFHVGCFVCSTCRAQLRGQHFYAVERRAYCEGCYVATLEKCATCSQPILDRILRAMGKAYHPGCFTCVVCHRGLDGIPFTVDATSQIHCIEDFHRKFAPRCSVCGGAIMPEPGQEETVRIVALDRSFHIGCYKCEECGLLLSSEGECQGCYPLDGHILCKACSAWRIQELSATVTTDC
# Variants of: B1
# Details: with actn3_human ACTN3, Q08043
# Chain of actn3_human ACTN3, Q08043 (Q08043 whole entry): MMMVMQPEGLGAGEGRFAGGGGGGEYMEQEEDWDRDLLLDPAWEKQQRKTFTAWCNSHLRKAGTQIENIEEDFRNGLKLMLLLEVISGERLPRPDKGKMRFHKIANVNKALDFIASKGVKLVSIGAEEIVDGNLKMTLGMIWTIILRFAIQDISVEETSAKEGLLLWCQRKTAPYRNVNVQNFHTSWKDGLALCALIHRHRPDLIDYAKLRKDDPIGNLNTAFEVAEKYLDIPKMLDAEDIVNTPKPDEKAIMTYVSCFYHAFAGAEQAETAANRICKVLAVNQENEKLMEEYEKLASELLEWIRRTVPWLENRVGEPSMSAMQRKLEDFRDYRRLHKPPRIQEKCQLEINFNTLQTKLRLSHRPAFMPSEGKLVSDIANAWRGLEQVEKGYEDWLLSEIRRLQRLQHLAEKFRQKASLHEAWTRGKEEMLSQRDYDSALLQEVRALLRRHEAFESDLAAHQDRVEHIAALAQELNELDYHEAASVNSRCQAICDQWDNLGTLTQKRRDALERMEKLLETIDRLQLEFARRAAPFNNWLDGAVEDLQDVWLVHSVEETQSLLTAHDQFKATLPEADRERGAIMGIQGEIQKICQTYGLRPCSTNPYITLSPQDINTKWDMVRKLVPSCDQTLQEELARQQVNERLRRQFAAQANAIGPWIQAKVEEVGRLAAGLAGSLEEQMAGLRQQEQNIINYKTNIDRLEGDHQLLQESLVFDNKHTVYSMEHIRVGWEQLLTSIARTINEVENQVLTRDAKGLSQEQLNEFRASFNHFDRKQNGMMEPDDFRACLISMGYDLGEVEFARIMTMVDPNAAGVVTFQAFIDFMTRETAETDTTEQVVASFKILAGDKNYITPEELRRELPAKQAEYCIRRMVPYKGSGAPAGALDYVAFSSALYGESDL
row,effect of a mutation on the interaction,Variant
1,with no effect,V1248I

# Variants of: B2
# Details: with KRT40, Q6A162
row,effect of a mutation on the interaction,Variant
1,with no effect,R346W

# Variants of: B3
# Details: with asb13_human ASB13, Q8WXK3
row,effect of a mutation on the interaction,Variant
1,with no effect,A127S

# Variants of: B4
# Details: with tri27_human TRIM27, P14373
row,effect of a mutation on the interaction,Variant
1,disrupting interaction strength,P58Q

# Variants of: B5
# Details: with trip6_human TRIP6, Q15654
row,effect of a mutation on the interaction,Variant
1,with no effect,R503Q

# Variants of: B5
# Details: with trip6_human TRIP6, Q15654
# Remark: another data set of the same source
row,effect of a mutation on the interaction,Variant
1,with no effect,E368K
